Data reported in patent US20250282887A1 (Amgen, published 2025).

T1: human MAGEB5 (human, UniProt Q9BZ81 1-275)
T1 construct: whole, on cells; Transfected into CHO cells with Myc/DDK tags; also called CHO-MAGEB5+ cells
T1 sequence (looked up): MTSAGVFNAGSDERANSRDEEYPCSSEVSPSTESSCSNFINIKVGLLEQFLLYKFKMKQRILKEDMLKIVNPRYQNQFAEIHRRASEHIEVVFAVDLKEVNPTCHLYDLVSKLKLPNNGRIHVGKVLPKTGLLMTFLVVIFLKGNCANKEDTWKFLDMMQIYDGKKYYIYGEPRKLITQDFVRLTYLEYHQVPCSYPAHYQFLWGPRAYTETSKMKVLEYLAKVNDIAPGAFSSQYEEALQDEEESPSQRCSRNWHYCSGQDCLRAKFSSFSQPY

T2: human MAGEB3 (human, UniProt O15480 1-346)
T2 construct: whole, on cells; Transfected into CHO cells with Myc/DDK tags
T2 sequence (looked up): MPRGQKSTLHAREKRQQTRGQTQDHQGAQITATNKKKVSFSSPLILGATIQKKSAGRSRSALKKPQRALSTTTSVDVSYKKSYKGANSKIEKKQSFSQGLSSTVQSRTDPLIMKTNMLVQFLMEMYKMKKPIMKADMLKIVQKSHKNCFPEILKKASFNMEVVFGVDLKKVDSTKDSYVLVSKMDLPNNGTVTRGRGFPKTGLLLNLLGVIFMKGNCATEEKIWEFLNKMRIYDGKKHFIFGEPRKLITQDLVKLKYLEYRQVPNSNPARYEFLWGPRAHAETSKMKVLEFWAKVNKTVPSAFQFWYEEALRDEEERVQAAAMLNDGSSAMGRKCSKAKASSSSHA

T3: human MAGEB10 (human, UniProt Q96LZ2 1-347)
T3 construct: whole, on cells; FFPE cell pellets
T3 sequence (looked up): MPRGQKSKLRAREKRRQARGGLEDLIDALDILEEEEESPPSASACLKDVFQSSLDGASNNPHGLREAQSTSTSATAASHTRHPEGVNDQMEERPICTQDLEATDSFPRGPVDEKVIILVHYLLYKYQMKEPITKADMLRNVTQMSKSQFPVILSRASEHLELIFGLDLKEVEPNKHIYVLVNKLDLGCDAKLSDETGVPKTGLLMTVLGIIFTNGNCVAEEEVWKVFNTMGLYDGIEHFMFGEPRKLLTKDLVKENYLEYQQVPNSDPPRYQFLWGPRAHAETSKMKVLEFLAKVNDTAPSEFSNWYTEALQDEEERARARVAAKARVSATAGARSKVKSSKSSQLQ


Experiments:
human MAGEB5 = target: T1, human MAGEB5; test: IHC, FFPE CHO cells transfected with human MAGEB5
Source text: (§1) Negative control cells included parental Chinese hamster ovary (CHO) cells, CHO cells stably transfected with mCherry Vector Control (minus Myc/DDK tags), CHO cells stably transfected with mCherry-human DCAF4L2 (plus Myc/DDK tags). The cross-reactivity control cells included CHO cells transfected with mCherry Vector Control (plus Myc/DDK tags) with one of the human MAGE-B or MAGE-A family members (MAGEA1, MAGEA2, MAGEA3, MAGEA4, MAGEA5, MAGEA6, MAGEA8, MAGEA9, MAGEA11, MAGEA12, MAGEB1, MAGEB3, MAGEB4, MAGEB5, MAGEB6, MAGEB10, MAGEB16, MAGEB17, MAGEB18). Positive control cell lines included CHO cells transfected with mCherry Vector (plus Myc/DDK tags) with human MAGE-B2 or CHO cells transfected with mCherry Vector (open reading frame (ORF); minus Myc/DDK tags) with human MAGEB2, and thirteen human cancer cell lines with known endogenous RNA expression level of MAGEB2 (U266B1, T98G, KMM-1, U20S, CFPAC-1, SCaBER, UACC-257, CFPAC-1, VMRC-LCD, NCI-H1703, UM-UC-3, NCI-H1395, NCIH82).
(§2) FFPE samples were sectioned at 4 μm and mounted on positive charged glass slides. After mounting, paraffin sections were air-dried at room temperature. FFPE TMA samples were received as freshly sectioned and mounted on glass slides. The fully automated IHC assay was performed on a Discovery Ultra Stainer (Ventana Medical Systems, Tucson, AZ) using Ventana Anti-Rabbit HQ (cat #760-4815), Ventana Anti-HQ HRP (cat #760-4820), and Ventana Antibody Diluent with Casein (cat #760-219) (Ventana Medical Systems, Tucson, AZ). The slides were baked on the Discovery Ultra Stainer at 60° C. for 8 minutes, de-paraffinized with Ventana Discovery wash (cat #950-510) for 3 cycles (8 minutes each) at 69° C., and underwent cell conditioning (target retrieval) at 95° C. for 16 minutes (for cell arrays) or 32 minutes (tissues or TMAs) in CC1 buffer (cat #950-500). Following this, slides were incubated with Background Sniper (cat #BS966M, Biocare Medical, Pacheco, CA) in a Ventana Option Prep kit (cat #771-751) for 28 minutes, incubated with CM inhibitor (a part of the Ventana DAB kit cat #760-159) for 12 minutes, and incubated for 1 h at RT with MAGE-B2 antibody diluted with Ventana diluent with Casein in a Ventana Prep kit (cat #770-001) (working concentration at 0.1 μg/ml for cell pellet, or 1-5 ug/ml for tissues) or with a matched concentration of isotype control Rabbit IgG1 antibody.

human MAGEB3 = target: T2, human MAGEB3; test: IHC, FFPE CHO cells transfected with human MAGEB3
Source text: as §1, §2

human MAGEB10 = target: T3, human MAGEB10; test: IHC, FFPE CHO cells transfected with human MAGEB10
Source text: as §1, §2

Row | Binder | binding result (human MAGEB5) | binding result (human MAGEB3) | binding result (human MAGEB10)
1 | 1I14 (antibody, V domains shown, also called MAGE-B2 (1i14)) VH: QSVEESGGRLVTPGTPLTLTCTISGFSLSSYAMSWVRQAPGKGLEWIGSIGGGGSAVYASWAKGRFTISKTSTTVDLRITSPTTEDTAMYFCGRGFYSIDLWGPGTLVTVSS VL: DVVMTQTPASVEATVGGTVTIKCQSSQSVYDNNALAWYQQNAGQRPRLLIYGASTLASGVPSRFSASGSGTEFTLTISDLECADAATYYCQCTYYVSSYQNDFGGGTEVVVKG | no binding (tested: 0.1 µg/ml) | no binding (tested: 0.1 µg/ml) | no binding (tested: 0.1 µg/ml)
2 | 1C3 (antibody, V domains shown, also called MAGE-B2 (IC3); anti-MAGEB2 antibody 1C3) VH: QSLEESGGGLVQPEGSLTLTCTAFGVTLTNYYICWVRQAPGKGLEWVGCIDNANGRTYYASWAKGRFTISKTSSTTGTLQMTSLTAADTATYFCARSLATPLWGPGTLVTVSS VL: DIVMTQTPSSVEAAVGGTVTIKCQASQNISSYLAWYQQKPGQPPKLLIYRASTLASGVPSRFKGSGSGTQFTLTISDLECADAATYYCQSYDDSRSSNFFYAFGGGTEVVVKG | no binding (tested: 0.1 µg/ml) | no binding (tested: 0.1 µg/ml) | no binding (tested: 0.1 µg/ml)

Results, then the binder that gave them:

Row | binding result (human MAGEB5) | binding result (human MAGEB3) | binding result (human MAGEB10) | Binder
3 | no binding (tested: 0.1 µg/ml) | no binding (tested: 0.1 µg/ml) | no binding (tested: 0.1 µg/ml) | 4G17 (antibody, IgG1, V domains shown, Rabbit monoclonal IgG1; Tested as supernatant and as small batch purified antibody; also called MAGE-B2 (4G17); anti-MAGEB2 antibody 4G17) VH: QSLEESGGGLVQPEGSLTLTCTASGVTLSNYYICWVRQAPGKGLEWIGCIDNVNGRTYYASWAKGRFTISKTSSTTGTLQMTSLTAADTATYFCARSLATPLWGPGTLVTVSS VL: DIVMTQTPASVEAAVGGTVTIKCQASQNIDSYLAWYQQKPGQPPKLLIYRASTLASGVPSRFKGSGSGTEFTLTISDLECADAATYYCQSYDDSRSSSFFYGFGGGTEVVVK
4 | no binding (tested: 0.1 µg/ml) | no binding (tested: 0.1 µg/ml) | no binding (tested: 0.1 µg/ml) | 1J15 (antibody, IgG1, V domains shown, Rabbit monoclonal IgG1; Tested as supernatant and as small batch purified antibody; also called MAGE-B2 (IJ15); anti-MAGEB2 antibody 1J15) VH: QSLEESGGGLVQPEGSLTLTCTAFGFTLNNYYICWVRQAPGKGLEWIACIDNANGRTYYASWAKGRFTISKTSSTTVTLQMTSLTAADTATYFCARSLSTPLWGPGTLVTVSS VL: DIVMTQTPASVEAAVGGTVTIKCQASQSISSYLSWYQQKPGQPPKLLIYRASTLASGVPSRFRGSGSGTQFTLTISDLECADAATYYCQSYDDSSDNNFFYGFGGGTEVVVR
